Test results reported in patent US20110123511.

Assays:
[1] = tested on: GST-fusion histone H3 peptide (residues 1-57), K27R mutant [GST: P08515]
[2] = tested on: GST-fusion histone H3 peptide (residues 1-57), wild-type
[3] = tested on: H3 peptide containing residues 15-30
[4] = tested on: H3 peptide phosphorylated at S28
[5] = tested on: H3 peptide previously di-methylated at K27
[6] = tested on: full-length free histone H3 (individual core histone)
[7] = tested on: peptide containing H3 residues 1-20

SET protein from chlorella virus NY-2B
HMT activity on GST-histone H3 (residues 1-57) [1]: these viral SET proteins had robust methylation activity on wild-type H3 but little or diminished activity on the K27R mutant | HMT activity on GST-histone H3 (residues 1-57) [2]: these viral SET proteins had robust methylation activity on wild-type H3 but little or diminished activity on the K27R mutant | methylation activity with H3 peptides (14C-methyl-SAM) [3]: these viral SET proteins only methylated a H3 peptide containing residues 15-30 but not a peptide containing H3 residues 1-20 | methylation activity with H3 peptides (14C-methyl-SAM) [4]: They showed little methyltransferase activity if the H3 peptide was previously di-methylated at K27 or phosphorylated at S28 | methylation activity with H3 peptides (14C-methyl-SAM) [5]: They showed little methyltransferase activity if the H3 peptide was previously di-methylated at K27 or phosphorylated at S28 | histone methyltransferase activity (core histone H2A): the SET proteins from these 3 viruses selectively methylate H3 (data not shown) | histone methyltransferase activity (core histone H2B): the SET proteins from these 3 viruses selectively methylate H3 (data not shown) | histone methyltransferase activity (core histone H4): the SET proteins from these 3 viruses selectively methylate H3 (data not shown) | histone methyltransferase activity [6]: the SET proteins from these 3 viruses selectively methylate H3 (data not shown) | methylation activity with H3 peptides (14C-methyl-SAM) [7]: these viral SET proteins only methylated a H3 peptide containing residues 15-30 but not a peptide containing H3 residues 1-20

SET protein from chlorella virus MA-1D
HMT activity on GST-histone H3 (residues 1-57) [1]: these viral SET proteins had robust methylation activity on wild-type H3 but little or diminished activity on the K27R mutant | HMT activity on GST-histone H3 (residues 1-57) [2]: these viral SET proteins had robust methylation activity on wild-type H3 but little or diminished activity on the K27R mutant | methylation activity with H3 peptides (14C-methyl-SAM) [3]: these viral SET proteins only methylated a H3 peptide containing residues 15-30 but not a peptide containing H3 residues 1-20 | methylation activity with H3 peptides (14C-methyl-SAM) [4]: They showed little methyltransferase activity if the H3 peptide was previously di-methylated at K27 or phosphorylated at S28 | methylation activity with H3 peptides (14C-methyl-SAM) [5]: They showed little methyltransferase activity if the H3 peptide was previously di-methylated at K27 or phosphorylated at S28 | histone methyltransferase activity (core histone H2A): the SET proteins from these 3 viruses selectively methylate H3 (data not shown) | histone methyltransferase activity (core histone H2B): the SET proteins from these 3 viruses selectively methylate H3 (data not shown) | histone methyltransferase activity (core histone H4): the SET proteins from these 3 viruses selectively methylate H3 (data not shown) | histone methyltransferase activity [6]: the SET proteins from these 3 viruses selectively methylate H3 (data not shown) | methylation activity with H3 peptides (14C-methyl-SAM) [7]: these viral SET proteins only methylated a H3 peptide containing residues 15-30 but not a peptide containing H3 residues 1-20

SET protein from chlorella virus NY-2A
HMT activity on GST-histone H3 (residues 1-57) [1]: these viral SET proteins had robust methylation activity on wild-type H3 but little or diminished activity on the K27R mutant | HMT activity on GST-histone H3 (residues 1-57) [2]: these viral SET proteins had robust methylation activity on wild-type H3 but little or diminished activity on the K27R mutant | methylation activity with H3 peptides (14C-methyl-SAM) [3]: these viral SET proteins only methylated a H3 peptide containing residues 15-30 but not a peptide containing H3 residues 1-20 | methylation activity with H3 peptides (14C-methyl-SAM) [4]: They showed little methyltransferase activity if the H3 peptide was previously di-methylated at K27 or phosphorylated at S28 | methylation activity with H3 peptides (14C-methyl-SAM) [5]: They showed little methyltransferase activity if the H3 peptide was previously di-methylated at K27 or phosphorylated at S28 | histone methyltransferase activity (core histone H2A): the SET proteins from these 3 viruses selectively methylate H3 (data not shown) | histone methyltransferase activity (core histone H2B): the SET proteins from these 3 viruses selectively methylate H3 (data not shown) | histone methyltransferase activity (core histone H4): the SET proteins from these 3 viruses selectively methylate H3 (data not shown) | histone methyltransferase activity [6]: the SET proteins from these 3 viruses selectively methylate H3 (data not shown) | methylation activity with H3 peptides (14C-methyl-SAM) [7]: these viral SET proteins only methylated a H3 peptide containing residues 15-30 but not a peptide containing H3 residues 1-20
